According to publication PMC9482650, “Quantitative fragmentomics allow affinity mapping of interactomes” (Nature Communications, 2022):

T1: SYNPO2L, Q9H987
T1 sequence (Q9H987 1-98, limits assumed, looked up): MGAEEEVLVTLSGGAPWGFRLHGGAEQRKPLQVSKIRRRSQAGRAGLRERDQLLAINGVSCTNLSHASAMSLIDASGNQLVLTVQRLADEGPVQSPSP

T2: PREX2_2, Q70Z35
T2 sequence (Q70Z35 672-764, limits assumed, looked up): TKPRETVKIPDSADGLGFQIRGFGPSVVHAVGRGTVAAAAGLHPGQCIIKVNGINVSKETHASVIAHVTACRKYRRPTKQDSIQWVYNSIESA

T3: MPDZ_7, O75970
T3 sequence (O75970 1146-1253, limits assumed, looked up): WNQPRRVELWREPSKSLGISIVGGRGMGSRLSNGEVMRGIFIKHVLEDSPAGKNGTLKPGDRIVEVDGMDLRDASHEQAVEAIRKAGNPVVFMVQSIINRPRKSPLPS

T4: MLLT4, P55196
T4 sequence (P55196 1002-1103, limits assumed, looked up): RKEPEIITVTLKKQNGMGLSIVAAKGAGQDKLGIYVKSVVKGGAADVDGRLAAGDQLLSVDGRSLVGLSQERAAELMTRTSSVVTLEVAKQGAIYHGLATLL

T5: MPDZ_2, O75970
T5 sequence (O75970 252-347, limits assumed, looked up): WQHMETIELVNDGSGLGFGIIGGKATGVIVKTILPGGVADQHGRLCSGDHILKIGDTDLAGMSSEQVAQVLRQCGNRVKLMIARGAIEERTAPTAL

T6: PARD6G, Q9BYG4
T6 sequence (Q9BYG4 153-261, limits assumed, looked up): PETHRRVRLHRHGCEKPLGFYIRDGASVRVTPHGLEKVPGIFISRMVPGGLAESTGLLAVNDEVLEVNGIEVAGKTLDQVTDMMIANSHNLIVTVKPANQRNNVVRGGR

T7: NHERF1_2, O14745
T7 sequence (O14745 149-244, limits assumed, looked up): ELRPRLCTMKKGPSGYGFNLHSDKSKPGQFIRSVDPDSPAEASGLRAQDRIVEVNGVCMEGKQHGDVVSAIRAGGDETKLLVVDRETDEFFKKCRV

T8: MPDZ_13, O75970
T8 sequence (O75970 1982-2070, limits assumed, looked up): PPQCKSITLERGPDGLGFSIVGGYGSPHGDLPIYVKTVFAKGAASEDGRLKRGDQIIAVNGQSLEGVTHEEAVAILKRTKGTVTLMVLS

T9: PDLIM3, Q53GG5
T9 sequence (Q53GG5 1-94, limits assumed, looked up): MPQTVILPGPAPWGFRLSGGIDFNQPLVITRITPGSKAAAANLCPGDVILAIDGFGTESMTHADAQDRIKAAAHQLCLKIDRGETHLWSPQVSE

T10: SHROOM2, Q13796
T10 sequence (Q13796 21-118, limits assumed, looked up): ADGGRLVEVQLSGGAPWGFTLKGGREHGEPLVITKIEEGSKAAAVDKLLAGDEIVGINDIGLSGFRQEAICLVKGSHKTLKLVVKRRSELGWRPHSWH

T11: SHANK3, Q9BYB0
T11 sequence (Q9BYB0 641-750, limits assumed, looked up): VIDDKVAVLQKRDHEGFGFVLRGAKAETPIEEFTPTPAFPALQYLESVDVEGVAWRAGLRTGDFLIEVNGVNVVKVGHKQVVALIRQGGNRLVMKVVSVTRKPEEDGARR

T12: PTPN4, P29074
T12 sequence (P29074 512-599, limits assumed, looked up): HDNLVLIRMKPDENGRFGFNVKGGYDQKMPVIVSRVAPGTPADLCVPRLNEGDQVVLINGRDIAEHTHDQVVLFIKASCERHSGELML

T13: GIPC1, O14908
T13 sequence (O14908 128-223, limits assumed, looked up): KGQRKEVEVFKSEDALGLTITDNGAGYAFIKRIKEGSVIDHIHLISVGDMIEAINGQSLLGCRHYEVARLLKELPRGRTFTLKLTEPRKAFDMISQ


Experiments:
Assay in all cases: holdup assay
Set-up in all cases: key: below the threshold = too weak to quantify, mostly under pKd 3.1 to 4
Settings in all cases: plain residues with an end cap or a label only (N-terminal biotin on a linker: ttds)
MAST3, O60307 = biological target: MAST3, O60307
NHERF2_1, Q15599 = biological target: NHERF2_1, Q15599
SYNPO2L, Q9H987 = biological target: T1, SYNPO2L, Q9H987
PREX2_2, Q70Z35 = biological target: T2, PREX2_2, Q70Z35
CARD14, Q9BXL6 = biological target: CARD14, Q9BXL6
Q8TDM6 = biological target: Q8TDM6
RIMS2, Q9UQ26 = biological target: RIMS2, Q9UQ26
MPDZ_7, O75970 = biological target: T3, MPDZ_7, O75970
MLLT4, P55196 = biological target: T4, MLLT4, P55196
LMO7, Q8WWI1 = biological target: LMO7, Q8WWI1
Q9P227 = biological target: Q9P227
MPDZ_2, O75970 = biological target: T5, MPDZ_2, O75970
MAGI3_3, Q5TCQ9 = biological target: MAGI3_3, Q5TCQ9
PARD6G, Q9BYG4 = biological target: T6, PARD6G, Q9BYG4
NHERF1_2, O14745 = biological target: T7, NHERF1_2, O14745
MPDZ_13, O75970 = biological target: T8, MPDZ_13, O75970
PDLIM3, Q53GG5 = biological target: T9, PDLIM3, Q53GG5
SHROOM2, Q13796 = biological target: T10, SHROOM2, Q13796
O60759 = biological target: O60759
SHANK3, Q9BYB0 = biological target: T11, SHANK3, Q9BYB0
DLG2_1, Q15700 = biological target: DLG2_1, Q15700
CNKSR3, Q6P9H4 = biological target: CNKSR3, Q6P9H4
PTPN4, P29074 = biological target: T12, PTPN4, P29074
GRIP2_2, Q9C0E4 = biological target: GRIP2_2, Q9C0E4
GIPC1, O14908 = biological target: T13, GIPC1, O14908

MAST3, O60307, sequence (O60307 945-1048): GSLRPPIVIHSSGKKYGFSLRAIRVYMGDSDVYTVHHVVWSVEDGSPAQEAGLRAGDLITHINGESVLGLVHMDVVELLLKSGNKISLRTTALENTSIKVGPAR
CNKSR3, Q6P9H4, sequence (Q6P9H4 203-303): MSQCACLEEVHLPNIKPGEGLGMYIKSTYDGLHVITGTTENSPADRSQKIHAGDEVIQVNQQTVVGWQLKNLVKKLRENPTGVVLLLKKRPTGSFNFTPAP
GRIP2_2, Q9C0E4, sequence (Q9C0E4 137-245): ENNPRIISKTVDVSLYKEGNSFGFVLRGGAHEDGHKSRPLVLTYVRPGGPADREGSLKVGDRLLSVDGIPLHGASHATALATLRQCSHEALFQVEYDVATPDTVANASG
NHERF2_1, Q15599, sequence (Q15599 9-91): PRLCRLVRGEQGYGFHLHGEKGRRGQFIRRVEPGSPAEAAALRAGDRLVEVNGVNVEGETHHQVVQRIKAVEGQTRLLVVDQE
LMO7, Q8WWI1, sequence (Q8WWI1 1037-1138): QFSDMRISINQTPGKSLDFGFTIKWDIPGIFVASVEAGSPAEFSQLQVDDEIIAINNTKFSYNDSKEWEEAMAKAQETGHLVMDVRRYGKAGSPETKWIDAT
RIMS2, Q9UQ26, sequence (Q9UQ26 637-758): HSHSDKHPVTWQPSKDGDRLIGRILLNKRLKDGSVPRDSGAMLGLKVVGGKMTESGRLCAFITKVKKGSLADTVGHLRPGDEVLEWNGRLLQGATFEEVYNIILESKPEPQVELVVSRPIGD
CARD14, Q9BXL6, sequence (Q9BXL6 558-663): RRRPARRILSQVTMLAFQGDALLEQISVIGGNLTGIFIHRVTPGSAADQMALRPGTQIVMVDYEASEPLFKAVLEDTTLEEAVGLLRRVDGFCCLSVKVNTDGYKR
MAGI3_3, Q5TCQ9, sequence (Q5TCQ9 572-655): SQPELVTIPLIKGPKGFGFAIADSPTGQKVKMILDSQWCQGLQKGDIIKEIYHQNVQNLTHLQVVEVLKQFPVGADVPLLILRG

Binder | pKd (MAST3, O60307) | pKd (NHERF2_1, Q15599) | pKd (SYNPO2L, Q9H987) | pKd (PREX2_2, Q70Z35) | pKd (CARD14, Q9BXL6) | pKd (Q8TDM6) | pKd (RIMS2, Q9UQ26) | pKd (MPDZ_7, O75970) | pKd (MLLT4, P55196) | pKd (LMO7, Q8WWI1) | pKd (Q9P227) | pKd (MPDZ_2, O75970) | pKd (MAGI3_3, Q5TCQ9) | pKd (PARD6G, Q9BYG4) | pKd (NHERF1_2, O14745) | pKd (MPDZ_13, O75970) | pKd (PDLIM3, Q53GG5) | pKd (SHROOM2, Q13796) | pKd (O60759) | pKd (SHANK3, Q9BYB0) | also measured
SSLQSLETSV [ATP2B4, P23634] | below the threshold | below the threshold | below the threshold | below the threshold | below the threshold | below the threshold | below the threshold | below the threshold | below the threshold | 4.5 | below the threshold | below the threshold | below the threshold | below the threshold | below the threshold | below the threshold | below the threshold | below the threshold | below the threshold | below the threshold | pKd (DLG2_1, Q15700): 4.94; pKd (CNKSR3, Q6P9H4): below the threshold; pKd (PTPN4, P29074): 4.88; pKd (GRIP2_2, Q9C0E4): below the threshold
RHTTSTETAV [HPV30-E6, P36809] | below the threshold | below the threshold | below the threshold | below the threshold | below the threshold | below the threshold | below the threshold | below the threshold | below the threshold | below the threshold | below the threshold | below the threshold | below the threshold | below the threshold | below the threshold | below the threshold | below the threshold | below the threshold | below the threshold | below the threshold | pKd (GIPC1, O14908): 4.7; pKd (DLG2_1, Q15700): 4.84; pKd (CNKSR3, Q6P9H4): below the threshold; pKd (PTPN4, P29074): 4.72; pKd (GRIP2_2, Q9C0E4): below the threshold
QRQARSETLV [HPV59-E6, Q81964] | below the threshold | below the threshold | below the threshold | below the threshold | below the threshold | below the threshold | below the threshold | 4.28 | 4.33 | below the threshold | below the threshold | below the threshold | below the threshold | below the threshold | below the threshold | below the threshold | below the threshold | below the threshold | below the threshold | 4.22 | pKd (GIPC1, O14908): below the threshold; pKd (DLG2_1, Q15700): 4.52; pKd (CNKSR3, Q6P9H4): below the threshold; pKd (PTPN4, P29074): below the threshold; pKd (GRIP2_2, Q9C0E4): below the threshold
